The target of the test is Bicistronic receptor WU76UB CD3E_CD3E_2B4_CD3Z_CD3G_CD3G_OX40. As to the kind of experiment: cell-based or functional assay.
Bicistronic receptor WU76UB CD3E_CD3E_2B4_CD3Z_CD3G_CD3G_OX40, sequence (chain, as listed by the source limits assumed, form in doubt): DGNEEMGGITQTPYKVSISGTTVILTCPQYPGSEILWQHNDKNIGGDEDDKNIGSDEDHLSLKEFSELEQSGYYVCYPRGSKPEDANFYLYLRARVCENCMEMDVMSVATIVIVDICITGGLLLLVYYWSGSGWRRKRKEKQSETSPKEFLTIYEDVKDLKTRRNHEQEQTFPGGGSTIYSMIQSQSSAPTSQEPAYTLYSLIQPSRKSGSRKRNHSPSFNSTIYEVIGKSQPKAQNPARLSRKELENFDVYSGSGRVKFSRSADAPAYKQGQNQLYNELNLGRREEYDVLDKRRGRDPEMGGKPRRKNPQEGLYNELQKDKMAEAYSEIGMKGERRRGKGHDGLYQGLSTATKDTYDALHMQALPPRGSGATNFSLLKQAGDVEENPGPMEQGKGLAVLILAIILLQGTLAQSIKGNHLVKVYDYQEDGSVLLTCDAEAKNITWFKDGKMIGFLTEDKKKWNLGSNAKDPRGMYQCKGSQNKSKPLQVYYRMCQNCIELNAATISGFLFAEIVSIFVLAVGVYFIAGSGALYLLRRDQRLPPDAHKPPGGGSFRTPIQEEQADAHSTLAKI

Take Blinatumomab (bispecific antibody): the fold change in p-S6 levels amounted to 3 fold.

For the origin of these results see patent US20240173407A1.
